These are literature values, as cited in PMC10044870.

As usually defined, the pKd is the Kd on a negative log10 scale, so that one unit is a factor of ten.

pKd: −log10 of the molar value.

The target in this series is cleaved high molecular weight kininogen (HKa) (Homo sapiens) (UniProt P01042).
cleaved high molecular weight kininogen (HKa) (Homo sapiens), sequence (P01042 19-380, chain 1 of 2): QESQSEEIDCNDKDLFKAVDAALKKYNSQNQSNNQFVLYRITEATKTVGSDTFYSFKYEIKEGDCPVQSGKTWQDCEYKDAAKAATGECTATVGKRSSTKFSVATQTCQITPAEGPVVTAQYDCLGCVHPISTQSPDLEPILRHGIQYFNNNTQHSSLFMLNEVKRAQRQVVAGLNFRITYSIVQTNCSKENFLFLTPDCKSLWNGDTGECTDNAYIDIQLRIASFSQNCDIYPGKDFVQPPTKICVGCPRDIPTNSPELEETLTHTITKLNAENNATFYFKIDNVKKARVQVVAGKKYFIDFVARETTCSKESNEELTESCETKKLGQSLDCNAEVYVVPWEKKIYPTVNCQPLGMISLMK
cleaved high molecular weight kininogen (HKa) (Homo sapiens), sequence (P01042 390-644, chain 2 of 2): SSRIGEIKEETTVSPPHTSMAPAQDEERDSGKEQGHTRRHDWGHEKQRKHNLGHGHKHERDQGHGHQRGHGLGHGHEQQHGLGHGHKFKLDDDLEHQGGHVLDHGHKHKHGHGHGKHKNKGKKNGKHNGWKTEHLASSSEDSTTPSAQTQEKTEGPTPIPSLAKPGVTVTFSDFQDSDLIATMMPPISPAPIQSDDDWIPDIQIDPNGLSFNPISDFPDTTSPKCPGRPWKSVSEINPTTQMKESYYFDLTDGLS

ferritin, sequence (P02794 2-183): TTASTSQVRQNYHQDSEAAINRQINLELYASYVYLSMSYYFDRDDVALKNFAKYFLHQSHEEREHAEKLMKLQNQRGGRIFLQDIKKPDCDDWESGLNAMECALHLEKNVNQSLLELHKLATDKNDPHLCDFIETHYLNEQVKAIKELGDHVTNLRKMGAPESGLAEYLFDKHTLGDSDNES
ferritin, sequence (P02792 2-175, further chain): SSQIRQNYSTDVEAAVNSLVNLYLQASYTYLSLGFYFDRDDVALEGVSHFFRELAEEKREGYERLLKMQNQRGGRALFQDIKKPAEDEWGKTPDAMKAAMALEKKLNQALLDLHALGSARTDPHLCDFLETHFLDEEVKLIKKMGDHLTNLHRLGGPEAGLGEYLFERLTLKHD

In the case of ferritin (from UniProt P02794), the pKd is 7.89.
